Numbering of substitutions follows the chain as printed. Read-outs that look alike come from different tables or passages of the source.
B1: CCTP (14 amino acids) (peptide, UniProt P0A9A6 370-383, looked up)
peptide: DYLDIPAFLRKQAD
B2: FtsZ-360 (domain or fragment, E. coli, UniProt P0A9A6 1-360, looked up)
chain: MFEPMELTNDAVIKVIGVGGGGGNAVEHMVRERIEGVEFFAVNTDAQALRKTAVGQTIQIGSGITKGLGAGANPEVGRNAADEDRDALRAALEGADMVFIAAGMGGGTGTGAAPVVAEVAKDLGILTVAVVTKPFNFEGKKRMAFAEQGITELSKHVDSLITIPNDKLLKVLGRGISLLDAFGAANDVLKGAVQGIAELITRPGLMNVDFADVRTVMSEMGYAMMGSGVASGEDRAEEAAEMAISSPLLEDIDLSGARGVLVNITAGFDLRLDEFETVGNTIRAFASDNATVVIGTSLDPDMNDELRVTVVATGIGMDKRPEITLVTNKQVQQPVMDRYQQHGMAPLTQEQKPVAKVVND
B3: FtsZ-WT (natural protein, E. coli, UniProt P0A9A6 1-383, looked up)
chain: MFEPMELTNDAVIKVIGVGGGGGNAVEHMVRERIEGVEFFAVNTDAQALRKTAVGQTIQIGSGITKGLGAGANPEVGRNAADEDRDALRAALEGADMVFIAAGMGGGTGTGAAPVVAEVAKDLGILTVAVVTKPFNFEGKKRMAFAEQGITELSKHVDSLITIPNDKLLKVLGRGISLLDAFGAANDVLKGAVQGIAELITRPGLMNVDFADVRTVMSEMGYAMMGSGVASGEDRAEEAAEMAISSPLLEDIDLSGARGVLVNITAGFDLRLDEFETVGNTIRAFASDNATVVIGTSLDPDMNDELRVTVVATGIGMDKRPEITLVTNKQVQQPVMDRYQQHGMAPLTQEQKPVAKVVNDNAPQTAKEPDYLDIPAFLRKQAD
B4: His-SlmA/SBS (natural protein, E. coli, UniProt P0C093 1-198, looked up)
chain: MAEKQTAKRNRREEILQSLALMLESSDGSQRITTAKLAASVGVSEAALYRHFPSKTRMFDSLIEFIEDSLITRINLILKDEKDTTARLRLIVLLLLGFGERNPGLTRILTGHALMFEQDRLQGRINQLFERIEAQLRQVLREKRMREGEGYTTDETLLASQILAFCEGMLSRFVRSEFKYRPTDDFDARWPLIAAQLQ
B5: His-ZipA^185–328 (domain or fragment)
chain: not shown
B6: MalE-CCTP (domain or fragment, E. coli, UniProt P0A9A6 367-383, looked up)
chain: KEPDYLDIPAFLRKQAD
B7: ZipA^185–328 (untagged) (domain or fragment)
chain: not shown
B8: MinDΔ10-linker-CCTP (other, E. coli, UniProt P0AEZ3 1-260, looked up)
chain: MARIIVVTSGKGGVGKTTSSAAIATGLAQKGKKTVVIDFDIGLRNLDLIMGCERRVVYDFVNVIQGDATLNQALIKDKRTENLYILPASQTRDKDALTREGVAKVLDDLKAMDFEFIVCDSPAGIETGALMALYFADEAIITTNPEVSSVRDSDRILGILASKSRRAENGEEPIKEHLLLTRYNPGRVSRGDMLSMEDVLEILRIKLVGVIPEDQSVLRASNQGEPVILDINADAGKAYADTVERLLGEERPFRFIEEEKPEITLVTNKQVQQPVMDRYQQHGMAPLTQEQKPVAKVVNDNAPQTAKEPDYLDIPAFLRKQAD

Key:
His-ZipA^185–328 [1] = target: B5; experiment: BLI
[2] = target: the molecule itself; experiment: sedimentation of polymers + electron microscopy
FtsZ-WT [3] = target: B3; experiment: BLI
FtsZ-WT [4] = target: B3; experiment: BLI; remark: listed apart in the source
FtsZ-WT [5] = target: B3; experiment: BLI; remark: listed apart in the source
FtsZ-L178E = target: T1, FtsZ-L178E (E. coli, UniProt P0A9A6 1-383, L178E); experiment: BLI
T1 sequence (looked up): B3 chain with L178E

His-FtsZ = target: T2, His-FtsZ (E. coli, UniProt P0A9A6 1-383); experiment: BLI
T2 sequence (looked up): B3 chain

His-ZipA^185–328 [6] = target: B5; experiment: BLI; remark: listed apart in the source
His-ZipA^185–328 [7] = target: B5; experiment: BLI; remark: listed apart in the source

B1
Kd (His-ZipA^185–328 [1]): 140 ± 22 µM

B2
binding result [2]: binds

B3
binding result [2]: binds

B4
binding result (FtsZ-WT [3]): binds

B5
Kd (FtsZ-WT [4]): 0.77 ± 0.1 µM
Kd (FtsZ-WT [5]): 0.42 ± 0.1 µM
Kd (FtsZ-L178E): 5.3 ± 0.7 µM

B6
Kd (His-ZipA^185–328 [1]): 30.8 ± 4.7 µM

B7
Kd (His-FtsZ): 8.1 ± 1.3 µM

B8
Kd (His-ZipA^185–328 [6]): 11.7 ± 5.2 µM
Kd (His-ZipA^185–328 [7]): 1.4 ± 0.2 µM
